The values that follow come from patent publication US9879306B2, “Luciferase biosensors for cAMP” (PROMEGA CORPORATION, priority 2008, dated 2018).

Type in all cases: cell-based
One experiment addresses T1, dopamine D2 receptor (Homo sapiens, UniProt P14416).
T1 construct: expressed in transfected cells
Put plainly: Forskolin, dopamine and haloperidol responses of biosensor clones in HEK293 cells stably expressing the dopamine D2 receptor. As to conditions: for Dopamine Induced: 3 μM FSK + 0.3 μM dopamine; for Dopamine Induced / Forskolin (FSK) Induced / Forskolin (FSK) Uninduced: 10 minutes; for Forskolin (FSK) Induced: 3 μM FSK; for Halo Induced: 10 μM Haloperidol pre-treatment, then 3 μM FSK + 0.3 μM dopamine; for Dopamine Response: RLU agonist-treated / forskolin-treated; for Forskolin (FSK) Response: RLU forskolin-treated / untreated; for Halo Response: RLU haloperidol then FSK + dopamine / FSK + dopamine alone; for Forskolin (FSK) Uninduced: untreated (media alone). An excerpt:
To measure changes in the intracellular concentration of cAMP, HEK293 cells are transiently transfected with mutant cAMP biosensors followed by treatment with compounds known to increase or decrease the intracellular cAMP concentration through GPCR activation of Gs- or Gi-coupled receptors, respectively.
HEK293 cells stably expressing the dopamine D2 receptor were transiently transfected with the mutant cAMP biosensors from Example VIIB. Cells were also transfected with either 7A1 (Example III) or GS358 (parent biosensor) as controls. Cells were equilibrated for 2 hours at room temperature using 2 mM EF-luc. Antagonist assay wells were pre-treated for 10-15 minutes at room temperature with 10 μM Haloperidol (Halo). Next, the following reagents were added to their respective wells: media alone to “untreated” samples; 3 μM forskolin (FSK) to “forskolin-treated” samples; 3 μM FSK+0.3 μM dopamine to “agonist-treated” samples; and 3 μM FSK+0.3 μM dopamine to the aforementioned wells pre-treated with Halo. The cells were then incubated at room temperature for 10 minutes and luminescence was measured. Fold response for FSK was calculated by dividing the RLU from “forskolin-treated” cells by the RLU from the “untreated” cells. Fold response for dopamine treatment was calculated by dividing the RLU from the “agonist-treated” cells by the RLU from the “forskolin-treated” cells. Fold response for Haloperidol treatment was calculated by dividing the RLU from the cells treated with haloperidol then forskolin plus dopamine by the RLU of cells treated with forskolin plus dopamine alone.

A further experiment relates to HEK293 cells. Put plainly: Luminescence and fold response of biosensor clones in HEK293 cells after isoproterenol or FSK. As to conditions: for Isoproterenol-5 minutes Induced / Isoproterenol-5 minutes Resp: 5 minutes after isoproterenol; for Forskolin (FSK) Induced / Forskolin (FSK) Resp: 15 minutes after FSK; for Isoproterenol-15 minutes Induced / Isoproterenol-15 minutes Resp: 15 minutes after isoproterenol; for Isoproterenol-5 minutes Resp / Forskolin (FSK) Resp / Isoproterenol-15 minutes Resp: RLU induced / RLU uninduced; for Isoproterenol-5 minutes Uninduced / Forskolin (FSK) Uninduced / Isoproterenol-15 minutes Uninduced: uninduced cells; for Forskolin (FSK) Uninduced / Isoproterenol-15 minutes Uninduced: 15 minutes. As for the experimental part:
B. HEK293 cells were transiently transfected with plasmid DNAs encoding various biosensor mutants as above. These biosensor mutants contained the E284A and V316I mutation in the RIIbetaB cAMP binding domain and the modified linker sequence 7A1 (GSNWDSGCSREG; SEQ ID NO: 129). The clones also contained the additional mutations outlined in Table 5. Cells were equilibrated for 2 hours at room temperature with 2 mM EF-Luc. Luminescence was measured 5 and 15 minutes after addition of the isoproterenol and 15 minutes after addition of FSK. Fold response (response; Resp.) was calculated by dividing relative light units (RLUs) from induced cells by the RLUs from uninduced cells. As a control, the biosensor GS358 and 7A1 were included.

The subject of experiment [1] is GPR41. The experiment can be described thus: Sodium proprionate CRC with biosensor variants in HEK293 cells stably expressing GPR41. As to conditions: ratio of RLU of FSK treated well to untreated well. As for the experimental part: (§1) After 24 hours, the cells were transiently transfected with one of the cAMP biosensor variants (Tables 7A and 7B). After another 24 hours, the cells were equilibrated for 2 hours at room temperature using 5 mM EF-luc in CO2 independent media with 10% FBS. Prior to the addition of the compounds, luminescence was measured. The compounds (12× stock in CO2 independent media without FBS) were then added to the cells. For GPR41 expressing cells, sodium proprionate CRC was added. […] The cells were allowed to incubate another 30 minutes and luminescence read on a Varioskan Flash. EC50 values and fold responses were calculated for each of the clones with each of the compounds with or without FSK. In addition, variants […]7 (Example VIIB), 16A2 (Example VIIB) and GS358 were also screened.

In experiment [2] the target is T2, GPR41 (Homo sapiens, UniProt O14843).
T2 sequence (O14843 1-346): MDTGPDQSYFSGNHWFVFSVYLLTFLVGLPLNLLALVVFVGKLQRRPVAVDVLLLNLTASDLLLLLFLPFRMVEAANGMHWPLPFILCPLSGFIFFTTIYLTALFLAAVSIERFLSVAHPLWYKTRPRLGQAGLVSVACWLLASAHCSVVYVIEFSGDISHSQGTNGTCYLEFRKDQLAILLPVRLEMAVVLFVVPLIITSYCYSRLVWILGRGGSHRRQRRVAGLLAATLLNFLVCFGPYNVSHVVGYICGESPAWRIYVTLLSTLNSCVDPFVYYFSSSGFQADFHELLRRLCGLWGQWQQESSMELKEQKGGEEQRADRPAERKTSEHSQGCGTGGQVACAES
The experiment is described as above. As to conditions: for Fold Response Na proprionate + FSK(1 μM): with FSK 1 μM; for Fold Response Na proprionate: without FSK, ratio of induced to uninduced signal. As for the experimental part: as §1

T1 sequence (P14416 whole entry, species assumed): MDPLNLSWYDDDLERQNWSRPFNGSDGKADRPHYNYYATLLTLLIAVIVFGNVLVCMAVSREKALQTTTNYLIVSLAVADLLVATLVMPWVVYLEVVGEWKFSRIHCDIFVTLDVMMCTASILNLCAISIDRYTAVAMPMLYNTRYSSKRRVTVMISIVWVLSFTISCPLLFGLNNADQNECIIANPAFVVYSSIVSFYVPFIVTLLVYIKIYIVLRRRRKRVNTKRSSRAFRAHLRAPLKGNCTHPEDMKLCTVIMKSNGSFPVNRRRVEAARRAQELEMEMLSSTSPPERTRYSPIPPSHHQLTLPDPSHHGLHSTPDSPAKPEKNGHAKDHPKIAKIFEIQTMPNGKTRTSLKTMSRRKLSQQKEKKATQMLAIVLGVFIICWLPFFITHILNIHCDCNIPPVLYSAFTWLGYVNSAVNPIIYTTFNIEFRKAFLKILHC

B1: 16A2: 7A1 biosensor with F518L in Luc2.0; SEQ ID NO:60, 61 (protein)
chain: MPGAVGKVVPFFEAKVVDLDTGKTLGVNQRGELCVRGPMIMSGYVNNPEATNALIDKDGWLHSGDIAYWDEDEHFFIVDRLKSLIKYKGYQVAPAELESILLQHPNIFDAGVAGLPDDDAGELPAAVVVLEHGKTMTEKEIVDYVASQVTTAKKLRGGVVLVDEVPKGLTGKLDARKIREILIKAKKGSNWDSGCSREGMYESFIESLPFLKSLEFSARLKVVDVIGTKVYNDGEQIIAQGDSADSFFIIESGEVKITMKRKGKSEVEENGAVEIARCSRGQYFGELALVTNKPRAASAHAIGTVKCLAMDVQAFERLLGPCMEIMKRNIATYEEQLVALFGTNMDIVAKNIKKGPAPFYPLEDGTAGEQLHKAMKRYALVPGTIAFTDAHIEVDITYAEYFEMSVRLAEAMKRYGLNTNHRIVVCSENSLQFFMPVLGALFIGVAVAPANDIYNERELLNSMGISQPTVVFVSKKGLQKILNVQKKLPIIQKIIIMDSKTDYQGFQSMYTFVTSHLPPGFNEYDFVPESFDRDKTIALIMNSSGSTGLPKGVALPHRTACVRFSHARDPIFGNQIIPDTAILSVVPFHHGFGMFTTLGYLICGFRVVLMYRFEEELFLRSLQDYKIQSALLVPTLFSFFAKSTLIDKYDLSNLHEIASGGAPLSKEVGEAVAKRFHLPGIRQGYGLTETTSAILITPEGV
Consider B1, for which, in the experiment with dopamine D2 receptor, the “Dopamine Induced” value amounted to 95 RLU, the “Forskolin (FSK) Induced” value was determined as 4117 RLU, the “Halo Induced” value came to 223 RLU and the “Dopamine Response” value is 0.33 fold. For the same molecule, in the experiment with dopamine D2 receptor, the “Forskolin (FSK) Response” value was 28 fold, the “Halo Response” value is listed as 2.3 fold and the “Forskolin (FSK) Uninduced” value amounted to 147 RLU. In the experiment on HEK293 cells, the “Isoproterenol-5 minutes Induced” value is 44890 RLU, the “Forskolin (FSK) Induced” value is listed as 153670 RLU, the “Isoproterenol-15 minutes Induced” value is 141135 RLU and the “Isoproterenol-5 minutes Resp” value worked out at 85 fold. Further, in the experiment with HEK293 cells, the “Forskolin (FSK) Resp” value came out at 76 fold, the “Isoproterenol-15 minutes Resp” value amounted to 70 fold, the “Isoproterenol-5 minutes Uninduced” value worked out at 527 RLU and the “Forskolin (FSK) Uninduced” value stood at 2025 RLU. The “Isoproterenol-15 minutes Uninduced” value with HEK293 cells was 2025 RLU. Further, the “Fold Signal Change” value with GPR41 [1] turned out to be 89.7 fold. In the experiment with GPR41 [2], the “Fold Response Na proprionate + FSK(1 μM)” value was determined as 3.76 fold and the “Fold Response Na proprionate” value is recorded as 2.73 fold.

B2: GS358: parent cAMP biosensor Met-(FF luc 359-544)-GSSGGSGGSGGG-(RIIβB)-(FFluc4-355)-Val; SEQ ID NO:111, 112 (protein)
chain: MPGAVGKVVPFFEAKVVDLDTGKTLGVNQRGELCVRGPMIMSGYVNNPEATNALIDKDGWLHSGDIAYWDEDEHFFIVDRLKSLIKYKGYQVAPAELESILLQHPNIFDAGVAGLPDDDAGELPAAVVVLEHGKTMTEKEIVDYVASQVTTAKKLRGGVVFVDEVPKGLTGKLDARKIREILIKAKKGSSGGSGGSGGGMYESFIESLPFLKSLEFSERLKVVDVIGTKVYNDGEQIIAQGDSADSFFIVESGEVKITMKRKGKSEVEENGAVEIARCSRGQYFGELALVTNKPRAASAHAIGTVKCLAMDVQAFERLLGPCMEIMKRNIATYEEQLVALFGTNMDIVAKNIKKGPAPFYPLEDGTAGEQLHKAMKRYALVPGTIAFTDAHIEVDITYAEYFEMSVRLAEAMKRYGLNTNHRIVVCSENSLQFFMPVLGALFIGVAVAPANDIYNERELLNSMGISQPTVVFVSKKGLQKILNVQKKLPIIQKIIIMDSKTDYQGFQSMYTFVTSHLPPGFNEYDFVPESFDRDKTIALIMNSSGSTGLPKGVALPHRTACVRFSHARDPIFGNQIIPDTAILSVVPFHHGFGMFTTLGYLICGFRVVLMYRFEEELFLRSLQDYKIQSALLVPTLFSFFAKSTLIDKYDLSNLHEIASGGAPLSKEVGEAVAKRFHLPGIRQGYGLTETTSAILITPEGV
In the case of B2, in the experiment with dopamine D2 receptor, the “Dopamine Induced” value amounted to 5153 RLU, the “Forskolin (FSK) Induced” value stood at 9166 RLU, the “Halo Induced” value is listed as 9218 RLU and the “Dopamine Response” value was 0.56 fold. In addition, in the experiment with dopamine D2 receptor, the “Forskolin (FSK) Response” value came out at 5 fold, the “Halo Response” value was 1.9 fold and the “Forskolin (FSK) Uninduced” value turned out to be 1704 RLU. Moreover, in the experiment with HEK293 cells, the “Isoproterenol-5 minutes Induced” value came out at 41610 RLU, the “Forskolin (FSK) Induced” value is 195335 RLU, the “Isoproterenol-15 minutes Induced” value turned out to be 184150 RLU and the “Isoproterenol-5 minutes Resp” value is on record as 8 fold. For the same molecule, in the experiment on HEK293 cells, the “Forskolin (FSK) Resp” value amounted to 13 fold, the “Isoproterenol-15 minutes Resp” value is given as 12 fold, the “Isoproterenol-5 minutes Uninduced” value came to 4943 RLU and the “Forskolin (FSK) Uninduced” value is reported as 14895 RLU. Moreover, the “Isoproterenol-15 minutes Uninduced” value in the experiment on HEK293 cells was 14895 RLU. For the same molecule, the “Fold Signal Change” value in the experiment on GPR41 [1] is 9.48 (n = 8) fold. Further, in the experiment with GPR41 [2], the “Fold Response Na proprionate + FSK(1 μM)” value was 3.19 (n = 7) fold and the “Fold Response Na proprionate” value is on record as 2.56 (n = 8) fold.

B3: 4H7: 7A1 biosensor with F407Y in RIIβb; SEQ ID NO:35, 36 (protein)
chain: MPGAVGKVVPFFEAKVVDLDTGKTLGVNQRGELCVRGPMIMSGYVNNPEATNALIDKDGWLHSGDIAYWDEDEHFFIVDRLKSLIKYKGYQVAPAELESILLQHPNIFDAGVAGLPDDDAGELPAAVVVLEHGKTMTEKEIVDYVASQVTTAKKLRGGVVFVDEVPKGLTGKLDARKIREILIKAKKGSNWDSGCSREGMYESFIESLPFLKSLEFSARLKVVDVIGTKVYNDGEQIIAQGDSADSFFIIESGEVKITMKRKGKSEVEENGAVEIARCSRGQYFGELALVTNKPRAASAHAIGTVKCLAMDVQAFERLLGPCMEIMKRNIATYEEQLVALYGTNMDIVAKNIKKGPAPFYPLEDGTAGEQLHKAMKRYALVPGTIAFTDAHIEVDITYAEYFEMSVRLAEAMKRYGLNTNHRIVVCSENSLQFFMPVLGALFIGVAVAPANDIYNERELLNSMGISQPTVVFVSKKGLQKILNVQKKLPIIQKIIIMDSKTDYQGFQSMYTFVTSHLPPGFNEYDFVPESFDRDKTIALIMNSSGSTGLPKGVALPHRTACVRFSHARDPIFGNQIIPDTAILSVVPFHHGFGMFTTLGYLICGFRVVLMYRFEEELFLRSLQDYKIQSALLVPTLFSFFAKSTLIDKYDLSNLHEIASGGAPLSKEVGEAVAKRFHLPGIRQGYGLTETTSAILITPEGV
In the case of B3, in the experiment with dopamine D2 receptor, the “Dopamine Induced” value turned out to be 583 RLU, the “Forskolin (FSK) Induced” value was 3180 RLU, the “Halo Induced” value is 2778 RLU and the “Dopamine Response” value turned out to be 0.18 fold. In the experiment with dopamine D2 receptor, the “Forskolin (FSK) Response” value came out at 14 fold, the “Halo Response” value was 4.8 fold and the “Forskolin (FSK) Uninduced” value amounted to 230 RLU. Besides, in the experiment on HEK293 cells, the “Isoproterenol-5 minutes Induced” value is on record as 42467 RLU, the “Forskolin (FSK) Induced” value stood at 88555 RLU, the “Isoproterenol-15 minutes Induced” value is reported as 207210 RLU and the “Isoproterenol-5 minutes Resp” value came out at 86 fold. Moreover, in the experiment with HEK293 cells, the “Forskolin (FSK) Resp” value amounted to 33 fold, the “Isoproterenol-15 minutes Resp” value is 78 fold, the “Isoproterenol-5 minutes Uninduced” value worked out at 493 RLU and the “Forskolin (FSK) Uninduced” value was found to be 2665 RLU. Also, in the experiment on HEK293 cells, the “Isoproterenol-15 minutes Uninduced” value was 2665 RLU. Besides, the “Fold Signal Change” value with GPR41 [1] is 93.6 fold. In the experiment with GPR41 [2], the “Fold Response Na proprionate + FSK(1 μM)” value worked out at 2.98 fold and the “Fold Response Na proprionate” value is recorded as 1.94 fold.
